According to PMC8567388:

What was measured:
[1] = target: Peptide ligand: GluN2B (TAMRA-NNG-…); test: fluorescence polarisation
[2] = target: Peptide ligand: Stargazin (TAMRA-NNG-…); test: fluorescence polarisation

Kd [1] [µM]	Kd [2] [µM]	Substance
12.4	27.3	PSD-95 PDZ1 6xHis (domain or fragment)
1.9		PSD-95 PDZ1-2 6xHis (domain or fragment)
